Assay results reported in US12578329B2, “Reagent kit containing polypeptide for use in detection of intermolecular interactions” (SHIMADZU CORPORATION, priority 2021, dated 2026).

Tests used:
[1] = Emission activity of divided enzyme (Escherichia coli lysates, single or mixed); type: biochemical; settings: Experiment 11-2, coelenterazine 5 μM, Enspire multi-mode plate reader
From the text: picALuc30 was divided to prepare plasmids (pET32 vectors) for expression of polypeptides from position 4 to 22, from position 23 to 120, from position 4 to 47, from position 48 to 120, from position 4 to 77, from position 80 to 120, from position 4 to 90, and from position 91 to 120 of the amino acid sequence in SEQ ID NO: 51. In the same manner as in Experiment 10, the plasmid was introduced into Escherichia coli SHuffle T7 Express lysY, and from the cultured bacterial cells, a lysate was obtained. To 100 μL of a single lysate or a mixture of lysates as specified in FIG. 25, coelenterazine was added as a substrate at a final concentration of 5 μM, followed by measuring the emission value by using an Infinite (registered trademark) 200 PRO plate reader (TECAN). Because the lysate contained luciferase fragments at high concentrations, it was expected that when fragment-containing lysates were mixed, two types of fragments were highly likely to encounter each other and these two fragments could form the original luciferase structure.
picALuc30 was divided to further prepare plasmids (pET32 vectors) for expression of polypeptides from position 4 to 58, from position 4 to 64, from position 4 to 72, from position 65 to 120, from position 73 to 120, and from position 104 to 120 of the amino acid sequence in SEQ ID NO: 51. In Experiment 11-2, emission values were measured in the same manner as in Experiment 11-1 except that an Enspire multi-mode plate reader (PerkinElmer™) was used for emission value detection.

[2] = Emission value of secretion-expressed luciferase in COS-7 culture medium, coelenterazine substrate; type: biochemical
Method: • (1) COS-7 cells derived from the kidney of African green monkey were inoculated in a 24-well dish, and on the next day, subconfluency was attained. • (2) 25 μL of Opti-MEM (Thermo Fisher Scientific™), 400 ng (2 μL) of the plasmid, and 1 μL of P3000 (Invitrogen™, Waltham, MA) were mixed. • (3) 25 μL of Opti-MEM and 1 μL of lipofectoamine 3000 (Invitrogen™) were mixed. • (4) (2) and (3) were mixed together, followed by incubation at room temperature for 5 minutes. • (5) The mixture was added to the medium of (1). • (6) 500 μL of Dulbecco's modified Eagle's medium was added, followed by culturing the cells at 37° C. for 1 day and then collecting the medium. The medium contained secretion-expressed luciferase. • (7) To 100 μL of the medium, coelenterazine was added as a substrate at a final concentration of 5 μM, followed by measuring the emission value by using Enspire multi-mode plate reader (PerkinElmer™, Waltham, MA).
By the same manner as in Experiment 2, the emission value was measured.
The emission value was measured in the same manner as in Experiment 2 except that the final concentration of coelenterazine was changed to 0.5 μM. […] The emission value was measured in the same manner as in Experiment 2 except that the final concentration of coelenterazine was changed to 5 μM.

[3] = Experiment 2, coelenterazine 5 μM, medium of transfected COS-7 cells

Molecule | emission value [1] | further results
position 4 to 64 and position 65 to 120: combination of polypeptides of these positions of SEQ ID NO: 51 (SEQ ID NOs: 79 and 83) (protein, part of picALuc30) chain 1: GKKLPLEVLKELEANAQKAGCTRGCLICLSHIKCTAKMKKWLPGRCESWEGDKETGQGGIG chain 2: EAIVDIPEIPGFKELAPMEQFIAQVDLCADCTTGCLKGLANVKCSALLKKWLPSRC | high emission value | –
position 4 to 64 and position 73 to 120: combination of polypeptides of these positions of SEQ ID NO: 51 (SEQ ID NOs: 79 and 84) (protein, part of picALuc30) chain 1: GKKLPLEVLKELEANAQKAGCTRGCLICLSHIKCTAKMKKWLPGRCESWEGDKETGQGGIG chain 2: IPGFKELAPMEQFIAQVDLCADCTTGCLKGLANVKCSALLKKWLPSRC | high emission value | –
picALuc16: SEQ ID NO: 52; ALuc16 with deletion of N terminus and C terminus, corresponding to picALuc30 (protein, picALuc16, ALuc16 with deletion of N terminus and C terminus, corresponding to picALuc30) KLPGKKLPLEVLKELEANAQKAGCTRGCLICLSHIKCTAKMKKWLPGRCESWEGDKETGQGGIGEAIVDIPEIPGFKDLEPMEQFIAQVDLCVDCTTGCLKGLANVKCSDLLKKWLPSRCAT | – | emission value [2, 3]: sufficiently high
position 4 to 58 and position 23 to 120: combination of polypeptides of these positions of SEQ ID NO: 51 (SEQ ID NOs: 78 and 81) (protein, part of picALuc30) chain 1: GKKLPLEVLKELEANAQKAGCTRGCLICLSHIKCTAKMKKWLPGRCESWEGDKET chain 2: GCTRGCLICLSHIKCTAKMKKWLPGRCESWEGDKETGQGGIGEAIVDIPEIPGFKELAPMEQFIAQVDLCADCTTGCLKGLANVKCSALLKKWLPSRC | high emission value | –
position 4 to 72 and position 73 to 120: combination of polypeptides of these positions of SEQ ID NO: 51 (SEQ ID NOs: 80 and 84) (protein, part of picALuc30) chain 1: GKKLPLEVLKELEANAQKAGCTRGCLICLSHIKCTAKMKKWLPGRCESWEGDKETGQGGIGEAIVDIPE chain 2: IPGFKELAPMEQFIAQVDLCADCTTGCLKGLANVKCSALLKKWLPSRC | high emission value | –
ALuc30Δloop2N1: SEQ ID NO: 54; ALuc30 wt with N terminus (1 to 49) and loop 2 (122 to 128) deleted, Gly-Ser inserted; 14 kDa (protein, ALuc30_del_loop2N1, ALuc30 wt with N terminus (1 to 49) and loop 2 (122 to 128) deleted, Gly-Ser inserted; 14 kDa) RGRRGKLPGKKLPLEVLKELEANAQKAGCTRGCLICLSHIKCTAKMKKWLPGRCESWEGDKETGQGGIGEAIVGSFKELAPMEQFIAQVDLCADCTTGCLKGLANVKCSALLKKWLPSRCAGFADKIQAQVDTIKGAGGS | – | emission value ([2]; Experiment 4, same manner as Experiment 2 (coelenterazine 5 μM)): about half the emission value of ALuc30ΔN1
picALuc48: SEQ ID NO: 53; ALuc48 with deletion of N terminus and C terminus, corresponding to picALuc30 (protein, picALuc48, ALuc48 with deletion of N terminus and C terminus, corresponding to picALuc30) HGGLPGKKMPLEVLLELEANAQRAGCTRGCLICLSKIKCTAKMKKWLPGRCESWAGDKETGQGGITEEETVDIPEIPGFKDLEPMEQFIAQVDLCVDCTTGCLKGLANVKCSDLLKKWLPSRCAT | – | emission value [2, 3]: sufficiently high
